T1: recombinant human GPC6-His (human, UniProt Q9Y625 24-529, limits assumed)
T1 construct: Bought protein; also called RD System Cat #2845-GP; not shown: His tag
T1 sequence (looked up): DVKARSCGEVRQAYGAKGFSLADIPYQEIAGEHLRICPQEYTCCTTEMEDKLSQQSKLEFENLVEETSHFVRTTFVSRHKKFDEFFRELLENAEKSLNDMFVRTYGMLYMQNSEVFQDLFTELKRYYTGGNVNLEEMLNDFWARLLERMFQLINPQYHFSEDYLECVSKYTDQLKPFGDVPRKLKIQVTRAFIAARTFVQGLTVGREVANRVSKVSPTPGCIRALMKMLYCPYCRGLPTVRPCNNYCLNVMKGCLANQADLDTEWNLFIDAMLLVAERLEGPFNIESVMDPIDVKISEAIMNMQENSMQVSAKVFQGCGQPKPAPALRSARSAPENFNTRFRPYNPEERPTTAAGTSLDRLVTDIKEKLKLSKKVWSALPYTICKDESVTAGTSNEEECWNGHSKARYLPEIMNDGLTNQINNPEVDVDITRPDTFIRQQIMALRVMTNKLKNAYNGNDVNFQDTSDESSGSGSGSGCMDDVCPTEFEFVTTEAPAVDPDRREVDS

T2: recombinant human GPC5-His (human, UniProt P78333 25-551, limits assumed)
T2 construct: Bought protein; also called RD System Cat #2607-G5/CF; not shown: His tag
T2 sequence (looked up): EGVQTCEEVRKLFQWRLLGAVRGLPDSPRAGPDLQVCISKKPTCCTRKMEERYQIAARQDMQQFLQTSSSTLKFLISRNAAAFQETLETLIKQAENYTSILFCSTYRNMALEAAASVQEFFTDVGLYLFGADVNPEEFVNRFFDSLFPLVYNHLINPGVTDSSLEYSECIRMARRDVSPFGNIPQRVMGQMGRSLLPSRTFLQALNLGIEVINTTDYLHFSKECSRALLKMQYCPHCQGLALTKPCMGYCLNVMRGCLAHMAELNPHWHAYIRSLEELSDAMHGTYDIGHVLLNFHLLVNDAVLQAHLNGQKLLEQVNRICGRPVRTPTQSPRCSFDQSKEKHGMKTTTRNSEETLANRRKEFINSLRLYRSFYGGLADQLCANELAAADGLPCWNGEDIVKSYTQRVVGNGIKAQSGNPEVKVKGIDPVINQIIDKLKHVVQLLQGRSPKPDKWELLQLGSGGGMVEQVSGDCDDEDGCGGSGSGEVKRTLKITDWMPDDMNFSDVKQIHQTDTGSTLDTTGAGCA

T3: recombinant human GPC1-His (human, UniProt P35052 24-530, limits assumed)
T3 construct: Bought protein; also called RD System Cat #4519-GP; not shown: His tag
T3 sequence (looked up): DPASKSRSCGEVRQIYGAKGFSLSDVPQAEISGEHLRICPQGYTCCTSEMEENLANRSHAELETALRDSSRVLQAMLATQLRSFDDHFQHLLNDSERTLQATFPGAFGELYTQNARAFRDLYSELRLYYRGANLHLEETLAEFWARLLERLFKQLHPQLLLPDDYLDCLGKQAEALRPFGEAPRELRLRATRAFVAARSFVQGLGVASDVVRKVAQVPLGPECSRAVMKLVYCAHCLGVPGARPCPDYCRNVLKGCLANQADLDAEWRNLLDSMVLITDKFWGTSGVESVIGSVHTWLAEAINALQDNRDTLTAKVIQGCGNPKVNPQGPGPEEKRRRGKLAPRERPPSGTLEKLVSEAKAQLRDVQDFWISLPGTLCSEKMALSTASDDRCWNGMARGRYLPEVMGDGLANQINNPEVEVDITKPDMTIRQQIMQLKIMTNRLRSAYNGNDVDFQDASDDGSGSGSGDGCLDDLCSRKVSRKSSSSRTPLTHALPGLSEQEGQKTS

B1: AS79236VH6-hIgG1Fc (Fc fusion)
chain: EVQLVESGGGLVQPGGSLRLSCAVSGYTYSSYCMAWFRQAPGKGLEGVASIDAGGRTTYVDSVKGRFTISKDNAKNSLYLQMNSLRAEDTAMYYCAVDVRTRCGGTWDGEAVYFPYWGQGTLVTVSS
notes: also called anti-GPC2 VHH-hIgG1Fc; not shown: human IgG1 Fc fragment (hIgG1Fc)
B2: AS78117VH4-hIgG1Fc (Fc fusion)
chain: EVQLVESGGGLVQPGGSLRLSCIVSRYTYATYSMAWFRQAPGKGLEGVSGLDSVGATGYAESVKGRFTISRDNSKNTLYLQMNSLRAEDTAVYYCVVDPASAKVTYGSWSTPSYAYWGQGTLVTVSS
notes: as for B1
B3: AS70950VH6-hIgG1Fc (Fc fusion)
chain: EVQLVESGGGLVQPGGSLRLSCAISEFTYKNTCVGWFRQAPGKGREGVAAIDSDGNTNYVDSVKGRFTISQDNSKNTVYLQMNSLRAEDTAMYYCAAGAYCGRLLLWIGNYAYWGQGTLVTVSS
notes: as for B1

Biological target: T1, recombinant human GPC6-His
Assay: ELISA, plate coated with 2 ug/mL rhGPC6-his, VHH-hIgG1Fc detected with HRP goat anti-human IgG, OD450
Experimental: (§1) To evaluate the specificity of humanized anti-GPC2 VHH5 to recombinant human GPC2 protein, an ELISA-based binding assay was conducted to determine the differential target proteins binding of anti-GPC2 VHH5. Briefly, microplates were coated with 2 μg/mL recombinant human GPC1-His (RD System, Cat #4519-GP), GPC2-His (RD System, Cat #2304-GP), GPC3-His (ACRO, Cat #GP3-H5223), GPC4-Fc (RD System, Cat #9195-GP), GPC5-His (RD System, Cat #2607-G5/CF), GPC6-His (RD System, Cat #2845-GP) or recombinant mouse GPC2-His (RD System, Cat #2355-GP) proteins. Recombinant human protein coated plates were blocked with skim milk. Serially diluted humanized VHH-hIgG1Fc recombinant antibodies were added to each well of the plates and incubated at 4° C. for 1.5 h. Samples were further labelled with HRP-conjugated goat anti human IgG (H+L) secondary antibody (Genescript, Cat #A00166-1) and signal was developed with 3,3′,5,5′-Tetramethylbenzidine (TMB) substrate according to manufacturer's instruction. For the GPC4, VHH-His recombinant antibodies and anti-His tag secondary antibody (Genescript, Cat #A00612) were added to the GPC4-Fc coated plates instead. Optic density at 450 nm was measured by plate reader.

| binding result | Binder |
| --- | --- |
| no binding (tested: about 300 nM) | B1 |
| no binding (tested: about 300 nM) | B2 |
| no binding (tested: about 300 nM) | B3 |

Biological target: T2, recombinant human GPC5-His
Assay: ELISA, plate coated with 2 ug/mL rhGPC5-his, VHH-hIgG1Fc detected with HRP goat anti-human IgG, OD450
Experimental: as §1

| binding result | Binder |
| --- | --- |
| no binding (tested: about 300 nM) | B1 |
| no binding (tested: about 300 nM) | B2 |
| no binding (tested: about 300 nM) | B3 |

Biological target: T3, recombinant human GPC1-His
Assay: ELISA, plate coated with 2 ug/mL rhGPC1-his, VHH-hIgG1Fc detected with HRP goat anti-human IgG, OD450
Experimental: as §1

| binding result | Binder |
| --- | --- |
| no binding (tested: about 300 nM) | B1 |
| no binding (tested: about 300 nM) | B2 |
| no binding (tested: about 300 nM) | B3 |
